# Results: patent publication US20240059759A1 (BIGHAT BIOSCIENCES, published 2024)
# Where a chain is given by its changes, count along the chain named. Names and notes keep the numbering of the source.
# B1: VHH-72(S57G) (VHH)
# VHH: QVQLQESGGGLVQAGGSLRLSCAASGRTFSEYAMGWFRQAPGKEREFVATISWSGGGTYYTDSVKGRFTISRDNAKNTVYLQMNSLKPDDTAVYYCAAAGLGTVVSEWDYDYDYWGQGTQVTVSS
# B2: VHH-72 variant expressing both S57A and D61A (VHH)
# VHH: B1 VHH with G57A, D62A
# B3: VHH-72(D61A) (VHH)
# VHH: B1 VHH with G57S, D62A
# B4: VHH-72(S57T) (VHH)
# VHH: B1 VHH with G57T
# B5: VHH-72(S57S) (VHH)
# VHH: B1 VHH with G57S
# B6: VHH-72 (S57Y) (VHH)
# VHH: B1 VHH with G57Y
# B7: VHH-72 (S57A) (VHH)
# VHH: B1 VHH with G57A
# B8: VHH-72 (S57A, Y60H) (VHH)
# VHH: B1 VHH with G57A, Y60H
# B9: VHH-72 (S57A, Y60T) (VHH)
# VHH: B1 VHH with G57A, Y60T
# How the values were obtained:
# [1] = target: T1, SARS-CoV-2 RBD (SinoBiological, Cat. No. 40592-V02H) (SARS-CoV-2, UniProt P0DTC2 319-541); assay: ELISA on SARS-CoV-2 RBD
# T1 construct: domain: RBD
# [2] = target: T1, SARS-CoV-2 RBD (SinoBiological, Cat. …); assay: ELISA on RBD
# [3] = target: T1, SARS-CoV-2 RBD (SinoBiological, Cat. …); assay: ELISA on RBD, compared with wildtype VHH-72
# [4] = target: T1, SARS-CoV-2 RBD (SinoBiological, Cat. …); assay: ELISA, relative EC50
# [5] = target: T1, SARS-CoV-2 RBD (SinoBiological, Cat. …)
binder,measurement,setting,value
B1,Rel. EC50 - ELISA,[1],0.09 relative to WT
B2,EC50,[2],0.012 µg/mL
same,fold improved binding compared to the wildtype VHH-72,[3],> 160 fold
B3,EC50,[2],0.51 µg/mL
same,fold increased RBD binding,[3],4 fold
B4,binding result,[4],no binding
B5,Rel. EC50 - ELISA,[1],1 relative to WT
B6,Rel. EC50 - ELISA,[1],0.28 relative to WT
same,fold increased apparent affinity,[3],~4 fold
B7,EC50,[2],0.09 µg/mL
same,Rel. EC50 - ELISA,[1],0.05 relative to WT
same,fold increase in RBD affinity,[3],22 fold
B8,fold further-increased apparent RBD affinity,[5],~3.5 fold
same,EC50,[2],0.029 µg/mL
B9,fold further-increased apparent RBD affinity,[5],~3.5 fold
same,EC50,[2],0.024 µg/mL
